B1: Table S2 A row 647 (dsDNA)
DNA 1: CCCAGCCCTGCTGCCGGATGTGGTGAGGCCCAGGTG
DNA 2: CACCTGGGCCTCACCACATCCGGCAGCAGGGCTGGG
B2: Table S2 A row 288 (dsDNA)
DNA 1: CATAGACCGGATGCCTCGTCAACCACAGAAACCAAT
DNA 2: ATTGGTTTCTGTGGTTGACGAGGCATCCGGTCTATG
B3: Table S2 A row 895 (dsDNA)
DNA 1: TCAAGTTTGGTAACAGGATGTGGTAGGAGGAACACA
DNA 2: TGTGTTCCTCCTACCACATCCTGTTACCAAACTTGA
B4: Table S2 A row 462 (dsDNA)
DNA 1: TTCAACAGGATGTGGGAACTTGACTCTCGCCGCAAA
DNA 2: TTTGCGGCGAGAGTCAAGTTCCCACATCCTGTTGAA
B5: Table S2 A row 1496 (dsDNA)
DNA 1: GCACTGTAGGCAGGATGTGGGCAGGGGAAACTCAGG
DNA 2: CCTGAGTTTCCCCTGCCCACATCCTGCCTACAGTGC
B6: Table S2 A row 489 (dsDNA)
DNA 1: TCTAAATCACTTCCTGTTACAGAAACCACAGGCCTG
DNA 2: CAGGCCTGTGGTTTCTGTAACAGGAAGTGATTTAGA
B7: Table S2 A row 966 (dsDNA)
DNA 1: GGCCTTCATTACACAGGATGCGGTTGAAATGCATCA
DNA 2: TGATGCATTTCAACCGCATCCTGTGTAATGAAGGCC
B8: Table S2 A row 658 (dsDNA)
DNA 1: AGCTAGGACAGGATGTGAAAACCACACTGACAAAGT
DNA 2: ACTTTGTCAGTGTGGTTTTCACATCCTGTCCTAGCT
B9: Table S2 A row 990 (dsDNA)
DNA 1: TCCTAAAGCAGGAAATAGTGAGGCTACCGCAGTGTC
DNA 2: GACACTGCGGTAGCCTCACTATTTCCTGCTTTAGGA
B10: Table S2 A row 271 (dsDNA)
DNA 1: CACCCCCCCAGTGCAGGAAGTGGTTTTCGAGGGCAG
DNA 2: CTGCCCTCGAAAACCACTTCCTGCACTGGGGGGGTG
B11: Table S2 A row 1364 (dsDNA)
DNA 1: CTCAGGGTACCAGGATGTGGTTTAGCTTAGGGGTGG
DNA 2: CCACCCCTAAGCTAAACCACATCCTGGTACCCTGAG
B12: Table S2 A row 99 (dsDNA)
DNA 1: CTTAGCACTTCAGCCGGAAACCACAGCATACATTTC
DNA 2: GAAATGTATGCTGTGGTTTCCGGCTGAAGTGCTAAG
B13: Table S2 A row 1404 (dsDNA)
DNA 1: ATAGACTCAGGAAGTGATTGTGGTAAGATTCTATAT
DNA 2: ATATAGAATCTTACCACAATCACTTCCTGAGTCTAT
B14: Table S2 A row 524 (dsDNA)
DNA 1: TATCTCCTATCTCCAGGAAGTGGTTAGCCCTAGGAG
DNA 2: CTCCTAGGGCTAACCACTTCCTGGAGATAGGAGATA
B15: Table S2 A row 517 (dsDNA)
DNA 1: GTTAGCGTGATCGGAGGATGTGGTTTTCCTCCCTCT
DNA 2: AGAGGGAGGAAAACCACATCCTCCGATCACGCTAAC
B16: Table S2 A row 435 (dsDNA)
DNA 1: GACACAAGAACAGCAGGATGTGGTCAGAGGCGTCGT
DNA 2: ACGACGCCTCTGACCACATCCTGCTGTTCTTGTGTC
B17: Table S2 A row 513 (dsDNA)
DNA 1: AGGACGGGCGGAAGTGGCTGCGGTGGATGGTGGGAG
DNA 2: CTCCCACCATCCACCGCAGCCACTTCCGCCCGTCCT
B18: Table S2 A row 223 (dsDNA)
DNA 1: AGGGAACAGGAAATGCAAAAAACCACAAGGGACAAG
DNA 2: CTTGTCCCTTGTGGTTTTTTGCATTTCCTGTTCCCT
B19: Table S2 A row 568 (dsDNA)
DNA 1: GTGGGGCAGGATGTGCTTGCCTGGCTGCGGTTGGAC
DNA 2: GTCCAACCGCAGCCAGGCAAGCACATCCTGCCCCAC
B20: Table S2 A row 1234 (dsDNA)
DNA 1: GCTGGTATGGCAGGAAGTTTCTCACCACAGTATACT
DNA 2: AGTATACTGTGGTGAGAAACTTCCTGCCATACCAGC
B21: Table S2 A row 1263 (dsDNA)
DNA 1: TCACATTTTGCCGGATGTGGGTTGAGGGCATGCTGC
DNA 2: GCAGCATGCCCTCAACCCACATCCGGCAAAATGTGA
B22: Table S2 A row 721 (dsDNA)
DNA 1: AGTGCAGAGTGGACAGGATGTGGTGGAGGTGAGAGA
DNA 2: TCTCTCACCTCCACCACATCCTGTCCACTCTGCACT
B23: Table S2 A row 1302 (dsDNA)
DNA 1: AACAGACAGGATGTGGCCTCTGCCAAAACCACCATC
DNA 2: GATGGTGGTTTTGGCAGAGGCCACATCCTGTCTGTT
B24: Table S2 A row 397 (dsDNA)
DNA 1: AGGGGAGGAACCAGGAAGTTGTGGTAAACTGTAGCA
DNA 2: TGCTACAGTTTACCACAACTTCCTGGTTCCTCCCCT
B25: Table S2 A row 1753 (dsDNA)
DNA 1: TGAAGCAGGCGGAAGTGCTGTGGTTTCTGGCGACTG
DNA 2: CAGTCGCCAGAAACCACAGCACTTCCGCCTGCTTCA
B26: Table S2 A row 1174 (dsDNA)
DNA 1: CCTGCGGATCACGGAAGTGGCTGCGGTCGGCGCCAT
DNA 2: ATGGCGCCGACCGCAGCCACTTCCGTGATCCGCAGG
B27: Table S2 A row 649 (dsDNA)
DNA 1: TCTGTCGTCCCACTTCCTGCTGCGGTTTCCACCTCG
DNA 2: CGAGGTGGAAACCGCAGCAGGAAGTGGGACGACAGA
B28: Table S2 A row 332 (dsDNA)
DNA 1: AACAGGAAGTGGTCTTAGAGATCATGCGGTTCAGAG
DNA 2: CTCTGAACCGCATGATCTCTAAGACCACTTCCTGTT
B29: Table S2 A row 1210 (dsDNA)
DNA 1: CGGGAGGGGCAGGAAGCGGACTGCGGTGGGGAAGGG
DNA 2: CCCTTCCCCACCGCAGTCCGCTTCCTGCCCCTCCCG
B30: Table S2 A row 553 (dsDNA)
DNA 1: CCTTGCAGCAACGGATGTGGGTTTTTTTTTTTCTTT
DNA 2: AAAGAAAAAAAAAAACCCACATCCGTTGCTGCAAGG
B31: Table S2 A row 483 (dsDNA)
DNA 1: AACCAAACAGCCACAGGAAGTGGTTTCTGTGATTCA
DNA 2: TGAATCACAGAAACCACTTCCTGTGGCTGTTTGGTT
B32: Table S2 A row 1376 (dsDNA)
DNA 1: CTCTGGCAGGAAGCTCTGAGGGCTAAACCACAAAAA
DNA 2: TTTTTGTGGTTTAGCCCTCAGAGCTTCCTGCCAGAG
B33: Table S2 A row 911 (dsDNA)
DNA 1: TTACACAACAGGAAACTATGTTTAGCGGTTAATCCA
DNA 2: TGGATTAACCGCTAAACATAGTTTCCTGTTGTGTAA
B34: Table S2 A row 309 (dsDNA)
DNA 1: CTTAGAGTACCAGGATGTGGTTTGGCCTGGGGGTGG
DNA 2: CCACCCCCAGGCCAAACCACATCCTGGTACTCTAAG
B35: Table S2 A row 550 (dsDNA)
DNA 1: AGCAGGTATACCACTTCCTGTGGTTATCATTTGAGG
DNA 2: CCTCAAATGATAACCACAGGAAGTGGTATACCTGCT
B36: Table S2 A row 1548 (dsDNA)
DNA 1: TGCAGTCGTGAAAAAGGAAGTGGTTAAAGTGGCTAC
DNA 2: GTAGCCACTTTAACCACTTCCTTTTTCACGACTGCA
B37: Table S2 A row 1188 (dsDNA)
DNA 1: CCCACTGCGCCAGGATGTGGTCAGGTCGGTGACGTT
DNA 2: AACGTCACCGACCTGACCACATCCTGGCGCAGTGGG
B38: Table S2 A row 702 (dsDNA)
DNA 1: CACCTCCTCTCCGGATGCGGTTTGTTCTGCTTGTAG
DNA 2: CTACAAGCAGAACAAACCGCATCCGGAGAGGAGGTG
B39: Table S2 A row 338 (dsDNA)
DNA 1: GCCCAGGGCGGCCGGAAGTTTGCGGGGCGGGGCGGA
DNA 2: TCCGCCCCGCCCCGCAAACTTCCGGCCGCCCTGGGC
B40: Table S2 A row 1115 (dsDNA)
DNA 1: TCAATGACAGGAAGTTTTTAAACCACATACGGCTAA
DNA 2: TTAGCCGTATGTGGTTTAAAAACTTCCTGTCATTGA
B41: Table S2 A row 1142 (dsDNA)
DNA 1: ACAATAACAGGAAGTGGTGGGGACTGCGGTGACCTG
DNA 2: CAGGTCACCGCAGTCCCCACCACTTCCTGTTATTGT
B42: Table S2 A row 456 (dsDNA)
DNA 1: AACAGGCAAAGGACAGGATGTGGTGAGCGTCGGCCC
DNA 2: GGGCCGACGCTCACCACATCCTGTCCTTTGCCTGTT
B43: Table S2 A row 1449 (dsDNA)
DNA 1: GGGTTGGGTGCCGGATGCGGTGAGTGAGGTTCTCAT
DNA 2: ATGAGAACCTCACTCACCGCATCCGGCACCCAACCC
B44: Table S2 A row 930 (dsDNA)
DNA 1: AGCTCCACCGGAAACGGCCTGGCCGCAGCCAATCAG
DNA 2: CTGATTGGCTGCGGCCAGGCCGTTTCCGGTGGAGCT

Molecular target: ETS1:RUNX1 (Homo sapiens, UniProt P14921;Q01196 full;full)
Assay: gcPBM; 1 nM ETS1 + 25 nM RUNX1, anti-ETS1 signal, normalised
Details: tags: N-terminal GST (pDEST15), kept (PMC6008103); copies: 1;1; label: surface-attached array probe

ETS1:RUNX1, sequence (P14921 whole entry, chain 1 of 2): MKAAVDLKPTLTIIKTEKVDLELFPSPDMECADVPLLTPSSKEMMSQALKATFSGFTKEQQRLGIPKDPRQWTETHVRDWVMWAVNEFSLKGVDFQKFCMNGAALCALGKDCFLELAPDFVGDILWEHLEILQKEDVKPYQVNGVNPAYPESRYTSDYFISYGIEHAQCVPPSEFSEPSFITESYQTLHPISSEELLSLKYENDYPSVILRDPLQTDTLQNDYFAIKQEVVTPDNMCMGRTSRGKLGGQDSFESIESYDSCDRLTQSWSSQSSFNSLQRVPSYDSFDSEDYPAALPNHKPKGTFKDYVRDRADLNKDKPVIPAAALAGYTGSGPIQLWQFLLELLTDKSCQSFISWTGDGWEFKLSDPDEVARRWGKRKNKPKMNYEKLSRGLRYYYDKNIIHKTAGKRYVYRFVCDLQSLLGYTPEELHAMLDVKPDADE
ETS1:RUNX1, sequence (Q01196 whole entry, chain 2 of 2): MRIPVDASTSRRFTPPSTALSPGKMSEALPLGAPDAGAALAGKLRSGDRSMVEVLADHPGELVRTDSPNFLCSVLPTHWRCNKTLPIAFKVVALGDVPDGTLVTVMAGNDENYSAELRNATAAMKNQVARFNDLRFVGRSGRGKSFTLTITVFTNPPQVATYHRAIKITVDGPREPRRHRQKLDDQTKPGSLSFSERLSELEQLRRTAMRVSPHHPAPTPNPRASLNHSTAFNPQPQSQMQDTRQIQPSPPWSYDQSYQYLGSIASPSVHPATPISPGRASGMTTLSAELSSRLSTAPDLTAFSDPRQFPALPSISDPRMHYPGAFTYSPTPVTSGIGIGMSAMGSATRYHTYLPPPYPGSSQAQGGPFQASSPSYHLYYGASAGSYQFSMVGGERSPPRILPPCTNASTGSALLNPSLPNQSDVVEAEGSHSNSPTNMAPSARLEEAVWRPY

Binder	binding signal
B1	13200 PBM fluorescence, median of replicate spots
B2	11200 PBM fluorescence, median of replicate spots
B3	13400 PBM fluorescence, median of replicate spots
B4	13800 PBM fluorescence, median of replicate spots
B5	9520 PBM fluorescence, median of replicate spots
B6	13000 PBM fluorescence, median of replicate spots
B7	18400 PBM fluorescence, median of replicate spots
B8	11800 PBM fluorescence, median of replicate spots
B9	8320 PBM fluorescence, median of replicate spots
B10	14300 PBM fluorescence, median of replicate spots
B11	9440 PBM fluorescence, median of replicate spots
B12	10100 PBM fluorescence, median of replicate spots
B13	8880 PBM fluorescence, median of replicate spots
B14	9680 PBM fluorescence, median of replicate spots
B15	12400 PBM fluorescence, median of replicate spots
B16	17700 PBM fluorescence, median of replicate spots
B17	14100 PBM fluorescence, median of replicate spots
B18	18100 PBM fluorescence, median of replicate spots
B19	11400 PBM fluorescence, median of replicate spots
B20	8760 PBM fluorescence, median of replicate spots
B21	14600 PBM fluorescence, median of replicate spots
B22	9260 PBM fluorescence, median of replicate spots

Binder	binding signal
B23	12700 PBM fluorescence, median of replicate spots
B24	15800 PBM fluorescence, median of replicate spots
B25	15300 PBM fluorescence, median of replicate spots
B26	11700 PBM fluorescence, median of replicate spots
B27	14900 PBM fluorescence, median of replicate spots
B28	10100 PBM fluorescence, median of replicate spots
B29	16400 PBM fluorescence, median of replicate spots
B30	17200 PBM fluorescence, median of replicate spots
B31	16800 PBM fluorescence, median of replicate spots
B32	8390 PBM fluorescence, median of replicate spots
B33	9030 PBM fluorescence, median of replicate spots
B34	8550 PBM fluorescence, median of replicate spots
B35	8000 PBM fluorescence, median of replicate spots
B36	12100 PBM fluorescence, median of replicate spots
B37	9170 PBM fluorescence, median of replicate spots
B38	12500 PBM fluorescence, median of replicate spots
B39	16100 PBM fluorescence, median of replicate spots
B40	9230 PBM fluorescence, median of replicate spots
B41	16500 PBM fluorescence, median of replicate spots
B42	10800 PBM fluorescence, median of replicate spots
B43	10600 PBM fluorescence, median of replicate spots
B44	16700 PBM fluorescence, median of replicate spots

— article PMC10681739, “High-throughput data and modeling reveal insights into the mechanisms of cooperative DNA-binding by transcription factor proteins”
